Experiments:
[1] = target: Human plasma fibronectin (human); experiment: SPR; Biacore T100, 25 °C; fibronectin (10 μg/ml) directly immobilized on CM5 chip; CSGal-1 injected at 30 μl/min; 10 mM HEPES pH 7.4, 150 mM NaCl, 3 mM EDTA, 0.0005% TWEEN-20; steady-state model
[2] = target: recombinant mouse α5β1 integrin protein (mouse) (UniProt P11688); experiment: SPR; Biacore T100, 25 °C; α5β1 integrin (1 μg/ml) captured by anti-α5 integrin antibody on CM5 chip; CSGal-1 injected at 30 μl/min; 10 mM HEPES pH 7.4, 150 mM NaCl, 3 mM EDTA, 0.0005% TWEEN-20; steady-state model

Human plasma fibronectin (human), sequence (P02751 other isoform, or with tags, fused parts or gaps): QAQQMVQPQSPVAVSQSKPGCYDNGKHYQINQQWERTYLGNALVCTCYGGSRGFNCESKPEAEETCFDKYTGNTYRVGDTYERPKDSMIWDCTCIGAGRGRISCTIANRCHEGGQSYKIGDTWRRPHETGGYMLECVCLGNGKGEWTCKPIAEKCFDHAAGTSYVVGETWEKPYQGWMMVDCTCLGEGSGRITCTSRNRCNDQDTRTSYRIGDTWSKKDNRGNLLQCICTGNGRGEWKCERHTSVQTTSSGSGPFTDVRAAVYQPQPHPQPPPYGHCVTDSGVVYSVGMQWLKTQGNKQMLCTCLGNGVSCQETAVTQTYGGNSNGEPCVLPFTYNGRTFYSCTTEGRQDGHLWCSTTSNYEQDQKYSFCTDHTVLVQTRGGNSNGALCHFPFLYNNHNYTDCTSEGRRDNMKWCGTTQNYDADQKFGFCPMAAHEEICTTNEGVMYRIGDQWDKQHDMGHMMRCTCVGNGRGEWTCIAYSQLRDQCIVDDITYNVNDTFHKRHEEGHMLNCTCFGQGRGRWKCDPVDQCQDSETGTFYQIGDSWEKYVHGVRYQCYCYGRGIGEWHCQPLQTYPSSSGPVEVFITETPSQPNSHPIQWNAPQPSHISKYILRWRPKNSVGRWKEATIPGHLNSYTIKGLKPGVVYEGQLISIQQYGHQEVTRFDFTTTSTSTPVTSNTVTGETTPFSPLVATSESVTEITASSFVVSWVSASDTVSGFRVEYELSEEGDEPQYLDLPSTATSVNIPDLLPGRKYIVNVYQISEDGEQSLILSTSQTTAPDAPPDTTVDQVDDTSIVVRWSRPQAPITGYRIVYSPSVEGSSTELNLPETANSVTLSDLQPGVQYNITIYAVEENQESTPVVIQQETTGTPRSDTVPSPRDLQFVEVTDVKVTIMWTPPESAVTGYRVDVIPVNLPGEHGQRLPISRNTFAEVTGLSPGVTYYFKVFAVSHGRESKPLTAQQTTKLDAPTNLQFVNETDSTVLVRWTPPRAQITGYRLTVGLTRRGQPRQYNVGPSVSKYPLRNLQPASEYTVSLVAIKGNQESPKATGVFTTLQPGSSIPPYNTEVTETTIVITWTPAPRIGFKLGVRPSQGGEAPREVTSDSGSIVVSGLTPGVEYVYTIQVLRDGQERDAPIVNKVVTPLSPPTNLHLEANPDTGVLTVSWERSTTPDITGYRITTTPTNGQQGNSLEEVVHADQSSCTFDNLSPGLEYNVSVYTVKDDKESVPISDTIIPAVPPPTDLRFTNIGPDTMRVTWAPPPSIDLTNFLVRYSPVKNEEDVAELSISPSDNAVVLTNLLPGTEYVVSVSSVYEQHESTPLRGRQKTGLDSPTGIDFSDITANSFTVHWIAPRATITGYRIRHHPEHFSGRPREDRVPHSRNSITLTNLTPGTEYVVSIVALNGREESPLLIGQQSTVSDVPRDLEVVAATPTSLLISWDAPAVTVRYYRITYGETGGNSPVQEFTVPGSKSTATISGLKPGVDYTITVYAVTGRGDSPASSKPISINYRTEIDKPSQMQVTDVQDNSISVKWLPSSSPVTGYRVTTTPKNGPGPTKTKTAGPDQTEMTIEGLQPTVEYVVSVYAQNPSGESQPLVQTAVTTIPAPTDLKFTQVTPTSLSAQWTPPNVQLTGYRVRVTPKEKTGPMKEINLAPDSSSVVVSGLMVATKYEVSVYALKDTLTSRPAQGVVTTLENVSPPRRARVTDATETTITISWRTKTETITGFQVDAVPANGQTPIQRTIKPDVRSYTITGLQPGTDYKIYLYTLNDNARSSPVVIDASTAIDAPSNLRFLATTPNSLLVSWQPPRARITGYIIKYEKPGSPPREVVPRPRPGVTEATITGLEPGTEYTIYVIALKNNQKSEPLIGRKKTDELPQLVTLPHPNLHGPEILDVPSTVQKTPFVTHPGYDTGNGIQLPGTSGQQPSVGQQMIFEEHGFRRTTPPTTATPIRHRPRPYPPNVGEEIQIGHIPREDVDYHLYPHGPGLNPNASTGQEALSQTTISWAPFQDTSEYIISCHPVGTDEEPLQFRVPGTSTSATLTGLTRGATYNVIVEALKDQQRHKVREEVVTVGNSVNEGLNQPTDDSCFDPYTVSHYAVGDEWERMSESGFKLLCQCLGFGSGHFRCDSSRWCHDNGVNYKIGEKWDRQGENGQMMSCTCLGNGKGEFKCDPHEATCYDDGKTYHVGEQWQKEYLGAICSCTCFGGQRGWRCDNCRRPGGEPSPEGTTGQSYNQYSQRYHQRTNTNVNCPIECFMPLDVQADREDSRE

“CSGal-1, cysteine-less mutant of human galectin-1, tag-free recombinant protein (from UniProt P09382 1-135) (natural protein)” gave a Kd [1] of 12.4 µM and a Kd [2] of 852 nM.
